Columns and labels:
[1] = test system: HeLa Kyoto; test: solubility in G1/S (NP-40 vs SDS abundance) (log2 ratio); higher = more soluble; conditions: cell cycle stage: G1/S
[2] = test system: HeLa Kyoto; test: melting temperature (median over replicates), in situ; higher = more thermally stable
[3] = test system: HeLa Kyoto; test: solubility change mitosis vs G1/S (difference of NP-40 vs SDS log2 ratios) (log2 ratio difference); higher = more soluble in mitosis
[4] = test system: HeLa Kyoto; test: thermal stability score vs G1/S (z-score of summed log2 fold changes over temperatures); higher = more thermally stable than in G1/S
[5] = cell cycle stage: early G1 (4.5 h after nocodazole release)
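Throughout, for melting temperature (median over replicates), in situ: HeLa Kyoto cells synchronized by double thymidine or nocodazole block, proteins quantified by TMT10plex mass spectrometry, three independent biological replicates.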
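Throughout, for solubility change mitosis vs G1/S (difference of NP-40 vs SDS log2 ratios): synchronized HeLa Kyoto cells (double thymidine block for G1/S, nocodazole release for mitosis), protein amounts in NP-40 versus SDS lysates quantified by mass spectrometry, three biological replicates.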
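Throughout, for solubility in G1/S (NP-40 vs SDS abundance): HeLa Kyoto cells arrested at G1/S by double thymidine block, proteins quantified by TMT10plex mass spectrometry in mild NP-40 versus SDS extracts, three biological replicates.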
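Throughout, for thermal stability score vs G1/S (z-score of summed log2 fold changes over temperatures): synchronized HeLa Kyoto cells, proteins quantified by TMT10plex mass spectrometry, three biological replicates, mitosis taken 0.5 h after nocodazole release, G1/S directly after double thymidine block.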

Substance | solubility in G1/S (log2) [1] | melting temperature ([2]; cell cycle stage: G1/S) [°C] | melting temperature ([2]; cell cycle stage: mitosis) [°C] | solubility change mitosis (log2) [3] | thermal stability score [4, 5] | thermal stability score ([4]; cell cycle stage: mitosis)
MVVMARLSRPERPDLVFEEEDLPYEEEIMRNQFSVKCWLRYIEFKQGAPKPRLNQLYERALKLLPCSYKLWYRYLKARRAQVKHRCVTDPAYEDVNNCHERAFVFMHKMPRLWLDYCQFLMDQGRVTHTRRTFDRALRALPITQHSRIWPLYLRFLRSHPLPETAVRGYRRFLKLSPESAEEYIEYLKSSDRLDEAAQRLATVVNDERFVSKAGKSNYQLWHELCDLISQNPDKVQSLNVDAIIRGGLTRFTDQLGKLWCSLADYYIRSGHFEKARDVYEEAIRTVMTVRDFTQVFDSYAQFEESMIAAKMETASELGREEEDDVDLELRLARFEQLISRRPLLLNSVLLRQNPHHVHEWHKRVALHQGRPREIINTYTEAVQTVDPFKATGKPHTLWVAFAKFYEDNGQLDDARVILEKATKVNFKQVDDLASVWCQCGELELRHENYDEALRLLRKATALPARRAEYFDGSEPVQNRVYKSLKVWSMLADLEESLGTFQSTKAVYDRILDLRIATPQIVINYAMFLEEHKYFEESFKAYERGISLFKWPNVSDIWSTYLTKFIARYGGRKLERARDLFEQALDGCPPKYAKTLYLLYAQLEEEWGLARHAMAVYERATRAVEPAQQYDMFNIYIKRAAEIYGVTHTRGIYQKAIEVLSDEHAREMCLRFADMECKLGEIDRARAIYSFCSQICDPRTTGAFWQTWKDFEVRHGNEDTIKEMLRIRRSVQATYNTQVNFMASQMLKVSGSATGTVSDLAPGQSGMDDMKLLEQRAEQLAAEAERDQPLRAQSKILFVRSDASREELAELAQQVNPEEIQLGEDEDEDEMDLEPNEVRLEQQSVPAAVFGSLKED [XAB2] | -0.31 | 47.4 | 48.4 | 0.0385 | 2.02 | 4.49
MKDVPGFLQQSQNSGPGQPAVWHRLEELYTKKLWHQLTLQVLDFVQDPCFAQGDGLIKLYENFISEFEHRVNPLSLVEIILHVVRQMTDPNVALTFLEKTREKVKSSDEAVILCKTAIGALKLNIGDLQVTKETIEDVEEMLNNLPGVTSVHSRFYDLSSKYYQTIGNHASYYKDALRFLGCVDIKDLPVSEQQERAFTLGLAGLLGEGVFNFGELLMHPVLESLRNTDRQWLIDTLYAFNSGNVERFQTLKTAWGQQPDLAANEAQLLRKIQLLCLMEMTFTRPANHRQLTFEEIAKSAKITVNEVELLVMKALSVGLVKGSIDEVDKRVHMTWVQPRVLDLQQIKGMKDRLEFWCTDVKSMEMLVEHQAHDILT [PSMD13] | 0.0175 | 53.2 | 51.3 | -0.181 | 1.44 | 2.56
ILF2 | -0.141 | 54.6 | 53.3 | 0.0511 | -1.61 | -1.98
MDRFVWTSGLLEINETLVIQQRGVRIYDGEEKIKFDAGTLLLSTHRLIWRDQKNHECCMAILLSQIVFIEEQAAGIGKSAKIVVHLHPAPPNKEPGPFQSSKNSYIKLSFKEHGQIEFYRRLSEEMTQRRWENMPVSQSLQTNRGPQPGRIRAVGIVGIERKLEEKRKETDKNISEAFEDLSKLMIKAKEMVELSKSIANKIKDKQGDITEDETIRFKSYLLSMGIANPVTRETYGSGTQYHMQLAKQLAGILQVPLEERGGIMSLTEVYCLVNRARGMELLSPEDLVNACKMLEALKLPLRLRVFDSGVMVIELQSHKEEEMVASALETVSEKGSLTSEEFAKLVGMSVLLAKERLLLAEKMGHLCRDDSVEGLRFYPNLFMTQS [VPS36] | -0.823 | 51.6 | 51 | -0.0782 | 1.41 | 2.15
MAENGDNEKMAALEAKICHQIEYYFGDFNLPRDKFLKEQIKLDEGWVPLEIMIKFNRLNRLTTDFNVIVEALSKSKAELMEISEDKTKIRRSPSKPLPEVTDEYKNDVKNRSVYIKGFPTDATLDDIKEWLEDKGQVLNIQMRRTLHKAFKGSIFVVFDSIESAKKFVETPGQKYKETDLLILFKDDYFAKKNEERKQNKVEAKLRAKQEQEAKQKLEEDAEMKSLEEKIGCLLKFSGDLDDQTCREDLHILFSNHGEIKWIDFVRGAKEGIILFKEKAKEALGKAKDANNGNLQLRNKEVTWEVLEGEVEKEALKKIIEDQQESLNKWKSKGRRFKGKGKGNKAAQPGSGKGKVQFQGKKTKFASDDEHDEHDENGATGPVKRAREETDKEEPASKQQKTENGAGDQ [SSB] | 0.66 | 49.3 | 50.3 | -0.0733 | 2.85 | 0.442
MEGKWLLCMLLVLGTAIVEAHDGHDDDVIDIEDDLDDVIEEVEDSKPDTTAPPSSPKVTYKAPVPTGEVYFADSFDRGTLSGWILSKAKKDDTDDEIAKYDGKWEVEEMKESKLPGDKGLVLMSRAKHHAISAKLNKPFLFDTKPLIVQYEVNFQNGIECGGAYVKLLSKTPELNLDQFHDKTPYTIMFGPDKCGEDYKLHFIFRHKNPKTGIYEEKHAKRPDADLKTYFTDKKTHLYTLILNPDNSFEILVDQSVVNSGNLLNDMTPPVNPSREIEDPEDRKPEDWDERPKIPDPEAVKPDDWDEDAPAKIPDEEATKPEGWLDDEPEYVPDPDAEKPEDWDEDMDGEWEAPQIANPRCESAPGCGVWQRPVIDNPNYKGKWKPPMIDNPSYQGIWKPRKIPNPDFFEDLEPFRMTPFSAIGLELWSMTSDIFFDNFIICADRRIVDDWANDGWGLKKAADGAAEPGVVGQMIEAAEERPWLWVVYILTVALPVFLVILFCCSGKKQTSGMEYKKTDAPQPDVKEEEEEKEEEKDKGDEEEEGEEKLEEKQKSDAEEDGGTVSQEEEDRKPKAEEDEILNRSPRNRKPRRE [CANX] | 0.339 | 53.7 | 53.9 | -0.0953 | 2.71 | 3.35
MENKSLESSQTDLKLVAHPRAKSKVWKYFGFDTNAEGCILQWKKIYCRICMAQIAYSGNTSNLSYHLEKNHPEEFCEFVKSNTEQMREAFATAFSKLKPESSQQPGQDALAVKAGHGYDSKKQQELTAAVLGLICEGLYPASIVDEPTFKVLLKTADPRYELPSRKYISTKAIPEKYGAVREVILKELAEATWCGISTDMWRSENQNRAYVTLAAHFLGLGAPNCLSMGSRCLKTFEVPEENTAETITRVLYEVFIEWGISAKVFGATTNYGKDIVKACSLLDVAVHMPCLGHTFNAGIQQAFQLPKLGALLSRCRKLVEYFQQSAVAMYMLYEKQKQQNVAHCMLVSNRVSWWGSTLAMLQRLKEQQFVIAGVLVEDSNNHHLMLEASEWATIEGLVELLQPFKQVAEMLSASRYPTISMVKPLLHMLLNTTLNIKETDSKELSMAKEVIAKELSKTYQETPEIDMFLNVATFLDPRYKRLPFLSAFERQQVENRVVEEAKGLLDKVKDGGYRPAEDKIFPVPEEPPVKKLMRTSTPPPASVINNMLAEIFCQTGGVEDQEEWHAQVVEELSNFKSQKVLGLNEDPLKWWSDRLALFPLLPKVLQKYWCVTATRVAPERLFGSAANVVSAKRNRLAPAHVDEQVFLYENARSGAEAEPEDQDEGEWGLDQEQVFSLGDGVSGGFFGIRDSSFL [ZBED1] | 0.0447 | 49.7 | 49.6 | -0.112 | 0.506 | 0.95
MENFRKVRSEEAPAGCGAEGGGPGSGPFADLAPGAVHMRVKEGSKIRNLMAFATASMAQPATRAIVFSGCGRATTKTVTCAEILKRRLAGLHQVTRLRYRSVREVWQSLPPGPTQGQTPGEPAASLSVLKNVPGLAILLSKDALDPRQPGYQPPNPHPGPSSPPAAPASKRSLGEPAAGEGSAKRSQPEPGVADEDQTA [RPP25] | 0.179 | 54.5 | 53.7 | 0.258 |  | 
MDTLDRVVKPKTKRAKRFLEKREPKLNENIKNAMLIKGGNANATVTKVLKDVYALKKPYGVLYKKKNITRPFEDQTSLEFFSKKSDCSLFMFGSHNKKRPNNLVIGRMYDYHVLDMIELGIENFVSLKDIKNSKCPEGTKPMLIFAGDDFDVTEDYRRLKSLLIDFFRGPTVSNIRLAGLEYVLHFTALNGKIYFRSYKLLLKKSGCRTPRIELEEMGPSLDLVLRRTHLASDDLYKLSMKMPKALKPKKKKNISHDTFGTTYGRIHMQKQDLSKLQTRKMKGLKKRPAERITEDHEKKSKRIKKN [RPF2] | -2.68 |  | 53.4 | 1.42 |  | 
USP32 | -0.319 | 50.4 | 50.3 | -0.0623 |  | 
MADKPDMGEIASFDKAKLKKTETQEKNTLPTKETIEQEKRSEIS [TMSB10] | -1.37 | 53.8 |  | 0.336 |  | 
MEADSPAGPGAPEPLAEGAAAEFSSLLRRIKGKLFTWNILKTIALGQMLSLCICGTAITSQYLAERYKVNTPMLQSFINYCLLFLIYTVMLAFRSGSDNLLVILKRKWWKYILLGLADVEANYVIVRAYQYTTLTSVQLLDCFGIPVLMALSWFILHARYRVIHFIAVAVCLLGVGTMVGADILAGREDNSGSDVLIGDILVLLGASLYAISNVCEEYIVKKLSRQEFLGMVGLFGTIISGIQLLIVEYKDIASIHWDWKIALLFVAFALCMFCLYSFMPLVIKVTSATSVNLGILTADLYSLFVGLFLFGYKFSGLYILSFTVIMVGFILYCSTPTRTAEPAESSVPPVTSIGIDNLGLKLEENLQETHSAVL [SLC35F2] | 0.147 |  | 56.1 | -0.182 |  | 
BAZ2A | -0.382 | 48.3 | 49.6 | 0.217 |  | 
ZFHX3 | -0.242 | 48.7 | 49.3 | 0.302 |  | 
MNVALQELGAGSNMVEYKRATLRDEDAPETPVEGGASPDAMEVGKGASPFSPGPSPGMTPGTPRSSGLFWRVTCPHLRSISGLCSRTMVGFQKGTRQLLGSRTQLELVLAGASLLLAALLLGCLVALGVQYHRDPSHSTCLTEACIRVAGKILESLDRGVSPCEDFYQFSCGGWIRRNPLPDGRSRWNTFNSLWDQNQAILKHLLENTTFNSSSEAEQKTQRFYLSCLQVERIEELGAQPLRDLIEKIGGWNITGPWDQDNFMEVLKAVAGTYRATPFFTVYISADSKSSNSNVIQVDQSGLFLPSRDYYLNRTANEKVLTAYLDYMEELGMLLGGRPTSTREQMQQVLELEIQLANITVPQDQRRDEEKIYHKMSISELQALAPSMDWLEFLSFLLSPLELSDSEPVVVYGMDYLQQVSELINRTEPSILNNYLIWNLVQKTTSSLDRRFESAQEKLLETLYGTKKSCVPRWQTCISNTDDALGFALGSLFVKATFDRQSKEIAEGMISEIRTAFEEALGQLVWMDEKTRQAAKEKADAIYDMIGFPDFILEPKELDDVYDGYEISEDSFFQNMLNLYNFSAKVMADQLRKPPSRDQWSMTPQTVNAYYLPTKNEIVFPAGILQAPFYARNHPKALNFGGIGVVMGHELTHAFDDQGREYDKEGNLRPWWQNESLAAFRNHTACMEEQYNQYQVNGERLNGRQTLGENIADNGGLKAAYNAYKAWLRKHGEEQQLPAVGLTNHQLFFVGFAQVWCSVRTPESSHEGLVTDPHSPARFRVLGTLSNSRDFLRHFGCPVGSPMNPGQLCEVW [ECE2] | 0.0962 |  | 50.7 | -0.189 |  | 
MAADVSVTHRPPLSPKSGAEVEAGDAAERRAPEEELPPLDPEEIRKRLEHTERQFRNRRKILIRGLPGDVTNQEVHDLLSDYELKYCFVDKYKGTAFVTLLNGEQAEAAINAFHQSRLRERELSVQLQPTDALLCVANLPPSLTQQQFEELVRPFGSLERCFLVYSERTGQSKGYGFAEYMKKDSAARAKSDLLGKPLGPRTLYVHWTDAGQLTPALLHSRCLCVDRLPPGFNDVDALCRALSAVHSPTFCQLACGQDGQLKGFAVLEYETAEMAEEAQQQADGLSLGGSHLRVSFCAPGPPGRSMLAALIAAQATALNRGKGLLPEPNILQLLNNLGPSASLQLLLNPLLHGSAGGKQGLLGAPPAMPLLNGPALSTALLQLALQTQGQKKPGILGDSPLGALQPGAQPANPLLGELPAGGGLPPELPPRRGKPPPLLPSVLGPAGGDREALGLGPPAAQLTPPPAPVGLRGSGLRGPLSHFYSGSPTSYFTSGLQAGLKQSHLSKAIGSSPLGSGEGLLGLSPGPNGHSHLLKVRAGGGDMQGWEAPAPQRPLTRPALPSVSRPHWAARNAALPTCCPRPSPAQKAAMWASTPRASAATTRTPT [RAVER1] | 0.344 | 46.3 | 48.9 | 0.165 |  | 
